Laboratory results published in patent US20240245811A1, “ALPHA RA[…] ANALOGUE AND USE THEREOF IN METHODS OF TREATING CCKB RECEPTOR POSITIVE DISEASES” (Paul Scherrer Institut, priority 2020, published 2024).
Read-outs that look alike come from different tables or passages of the source.

Assays:
[1] = system: A431/CCKBR tumors; assay: SPECT/CT imaging with 111In-PP-F11N after 225Ac-PP-F11N treatment; assay type: in vivo, nude mice; details: 13 MBq i.v., 2 h after injection, tumor-free mice after 45 or 60 kBq 225Ac-PP-F11N
From the text: Image reconstruction and processing is accomplished by using VivoQuant 3.0 Patch1 software.

[2] = system: A431/CCKBR cells; assay: Cell proliferation assay (CellTiter 96 AQueous); assay type: cell-based, human; details: 24 h
Method: Human epidermoid carcinoma A431 stable cell line that overexpress CCKBR, generated as previously described (Aloj et al., J Nucl Med 2004, 45(3), 485-94) can be cultured in DMEM, supplemented with 10% FBS (Bio Concept, Switzerland), 2 mM glutamine and antibiotics (0.1 mg/mL streptomycin, 100 IU penicillin) at 37° C. in a humidified incubator containing 5% CO2.
For the cell proliferation assay, 4×10^3 cells per well are seeded on the 96-well plates.
Cell proliferation can be analyzed using CellTiter 96 AQueous Non-Radioactive Cell Proliferation Kit (Promega AG, Switzerland) according to the manufacturer's instruction. Absorbance of formazan product is measured at 570 nm with a reference of 650 nm using a MicroPlate Reader (PerkinElmer, Switzerland). The absorbance of the control (untreated) cells is set as 100% cell viability. […] The assay is performed in triplicate.

[3] = system: A431/CCKBR tumors; assay: Therapy study in A431/CCKBR tumor-bearing nude mice; assay type: in vivo; details: 30-120 kBq, all groups
Method: For the therapy study, nude mice are subcutaneously injected with 5×10^6 A431/CCKBR cells on the left shoulder. […] The control group is injected with 100 μL PBS. Tumor diameters and mice weight are recorded daily during the working days. Tumor volume is calculated by using the formula formula V=(W^2×L)/2 (Faustino-Rocha et al. Lab Anim. 2013, 42(6), 217-224). Nude mice are sacrificed when the tumor volume exceeded 1.5 cm^3. The data are obtained from two sets of experiments including control, 30, 45, 60 kBq and control, 60, 90, 120 kBq treatment groups.
GraphPad Prism 7.00 for Windows was used for all statistical analysis. […] Log-rank (Mantel-Cox) test and Gehan-Breslow-Wilcoxon test are performed to compare different survival curves of treatment groups with the control group. Endpoints are defined as death in survival curves. Values of P<0.05 are considered statistically significant. The results are reported as mean±standard deviation of at least three independent replicates.

[4] = Biodistribution study in A431/CCKBR xenografted nude mice; assay type: in vivo; details: female, CD-1 nude, mouse, iv, total radioactivity; for tissue uptake at 4 h: 4 h post injection; for tissue uptake at 24 h: 24 h post injection; for tissue uptake at 48 h: 48 h post injection; for tissue uptake at 168 h: 7 days post injection
Method: (§1) 1, 4, 24, 48 h and 7 days after administration of radiolabeled peptides, mice are sacrificed and the post mortem dissected tumors and organs are weighted and their activity is measured on a gamma counter (Packard Cobra II Auto Gamma, PerkinElmer, Switzerland).

[5] = system: A431/CCKBR tumors; assay: as above; assay type: in vivo
Method: as §1

[6] = Histological (HE) analysis of kidney and stomach after treatment; assay type: in vivo, nude mice; details: 60 and 120 kBq groups, organs dissected between day 34 and 49
[7] = molecular target: T1, CCKBR (Homo sapiens, UniProt P32239); details: cited from earlier work
T1 sequence (P32239 1-447): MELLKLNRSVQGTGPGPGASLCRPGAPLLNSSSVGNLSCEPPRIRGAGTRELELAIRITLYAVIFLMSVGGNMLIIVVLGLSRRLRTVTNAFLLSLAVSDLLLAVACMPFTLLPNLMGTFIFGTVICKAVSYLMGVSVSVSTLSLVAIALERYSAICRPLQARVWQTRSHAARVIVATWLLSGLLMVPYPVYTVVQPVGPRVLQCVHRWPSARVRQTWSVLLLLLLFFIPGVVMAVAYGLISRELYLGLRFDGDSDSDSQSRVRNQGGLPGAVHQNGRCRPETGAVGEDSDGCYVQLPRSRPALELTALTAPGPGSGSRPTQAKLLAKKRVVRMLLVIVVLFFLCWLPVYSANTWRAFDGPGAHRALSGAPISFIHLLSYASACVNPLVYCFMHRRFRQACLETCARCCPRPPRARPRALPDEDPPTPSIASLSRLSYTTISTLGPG

[8] = 38 kBq, stomach, read-out: activity in stomach
[9] = tumor (A431/CCKBR xenograft), 38 kBq, tumor, read-out: tumor uptake

In the case of `CCCC[C@H](NC(=O)[C@H](Cc1c[nH]c2ccccc12)NC(=O)CNC(=O)[C@H](Cc1ccc(O)cc1)NC(=O)[C@H](C)NC(=O)[C@@H](CCC(=O)O)NC(=O)[C@@H](CCC(=O)O)NC(=O)[C@@H](CCC(=O)O)NC(=O)[C@@H](CCC(=O)O)NC(=O)[C@@H](CCC(=O)O)NC(=O)[C@@H](CCC(=O)O)NC(=O)CN1CCN(CC(=O)O)CCN(CC(=O)O)CCN(CC(=O)O)CC1)C(=O)N[C@@H](CC(=O)O)C(=O)N[C@@H](Cc1ccccc1)C(N)=O` [^111In-PP-F11N, metal not drawn], the “location of radioactive signals on SPECT/CT” value [1] was “only detected in the excretion organs including kidneys and bladder”.

With `CCCC[C@H](NC(=O)[C@H](Cc1c[nH]c2ccccc12)NC(=O)CNC(=O)[C@H](Cc1ccc(O)cc1)NC(=O)[C@H](C)NC(=O)[C@@H](CCC(=O)O)NC(=O)[C@@H](CCC(=O)O)NC(=O)[C@@H](CCC(=O)O)NC(=O)[C@@H](CCC(=O)O)NC(=O)[C@@H](CCC(=O)O)NC(=O)[C@@H](CCC(=O)O)NC(=O)CN1CCN(CC(=O)O)CCN(CC(=O)O)CCN(CC(=O)O)CC1)C(=O)N[C@@H](CC(=O)O)C(=O)N[C@@H](Cc1ccccc1)C(N)=O` [^225Ac-PP-F11N, metal not drawn] the “activity level at maximum cytotoxic effect (0% of cell viability)” value [2] was 100 kBq/mL, the “body weight and cytotoxicity symptoms during the treatment” value [3] was “no body weight losses or other cytotoxicity symptoms” and the tissue uptake at 4 h ([4]; 38 kBq, kidney, read-out: accumulation in the kidney) was 4.2 %ID/g. For the same compound, the tissue uptake at 1 h ([4]; 38 kBq, kidney, start of the first four hours (1 h post injection), read-out: accumulation in the kidney) was 8.1 %ID/g, the tissue uptake ([4]; 38 kBq, liver and bone, all analyzed time points, read-out: non-specific uptake in the liver and bone) was under 2 %ID/g and the tissue uptake at 1 h ([4]; 38 kBq, stomach, 1 h post injection, read-out: activity in stomach) was 1.5 %ID/g. It also gave a tissue uptake at 4 h [4, 8] of 1.3 %ID/g, a tissue uptake at 24 h [4, 8] of 1.2 %ID/g and a tissue uptake at 48 h [4, 8] of 0.8 %ID/g. It also gave a tissue uptake at 168 h [4, 8] of 0.3 %ID/g, a tissue uptake at 4 h [4, 9] of 11.2 %ID/g and a tissue uptake at 24 h [4, 9] of 7.2 %ID/g. For the same compound, the tissue uptake at 48 h [4, 9] was 5.7 %ID/g, the tissue uptake at 168 h [4, 9] was 4.5 %ID/g and the tissue uptake at 1 h ([4]; tumor (A431/CCKBR xenograft), tumor, 1 h post injection, 38 kBq i.v., read-out: tumor uptake) was 13 %ID/g. The “tumor-to-kidney and tumor-to-stomach ratios” value ([5]; at analyzed time points) was “excellent”, the “body or organ weights, general health or anatomy” value ([5]; biodistribution study, 38 kBq) was “no significant differences in body or organ weights, general health or anatomy” and the “activity level in the kidney” value ([5]; kidney, 1 week post injection) was 1.2%. The “activity level in the kidney” value ([5]; kidney, 48 h post injection) was 3.8%, the “decrease in accumulation in the kidney” value ([5]; kidney, within the first four hours) was 50% and the “HE stains of kidney and stomach versus control” value [6] was “no signs of acute radiation toxicity”.

In the case of `CCCC[C@H](NC(=O)[C@H](Cc1c[nH]c2ccccc12)NC(=O)CNC(=O)[C@H](Cc1ccc(O)cc1)NC(=O)[C@H](C)NC(=O)[C@@H](CCC(=O)O)NC(=O)[C@@H](CCC(=O)O)NC(=O)[C@@H](CCC(=O)O)NC(=O)[C@@H](CCC(=O)O)NC(=O)[C@@H](CCC(=O)O)NC(=O)[C@@H](CCC(=O)O)NC(=O)CN1CCN(CC(=O)O)CCN(CC(=O)O)CCN(CC(=O)O)CC1)C(=O)N[C@@H](CC(=O)O)C(=O)N[C@@H](Cc1ccccc1)C(N)=O` [metal not drawn], the “tumor uptake and kidney accumulation” value ([7]; WO 2015/067473 A1) is listed as “good tumor uptake as well as low accumulation in the kidneys” and the “accumulation in healthy tissues” value ([7]; recent studies (Sauter 2019, Rottenburger 2020)) is listed as “can accumulate in healthy tissues (i.e. in the stomach)”.
